This is an account of results in article PMC2116414.

In the experiment the target is Acanthamoeba myosin-II (Acanthamoeba). Briefly: electron microscopy.

Take Acanthamoeba myosin-II (complex): the stoichiometry N (in general, the number of molecules, sites or subunits per partner or assembly) was 8.
